What was measured:
[1] = target: CHIR-AB1 extracellular domain (chicken); assay: SPR
[2] = target: FcY (CH3-CH4 domains of chicken IgY) (chicken); assay: SEC
chicken IgY (chicken) = assay: SPR
[3] = target: CHIR-AB1 extracellular domain (chicken); assay: AUC

chicken IgY (natural protein) was tested, and the Kd [1] was 17 nM, the microscopic KD, binding of the first CHIR-AB1 to IgY (bivalent analyte model) [1] was 403 nM and the microscopic KD, binding of the second CHIR-AB1 to IgY (bivalent analyte model) [1] was 3900 nM.
“CHIR-AB1 extracellular domain (receptor)” gave a stoichiometry N [2] of 1.83, a Kd (chicken IgY (chicken)) of 800 nM and a stoichiometry N [3] of 2.

— paper PMC2603183
